According to patent US7462599:

Legend:
[1] = target: recombinant human glutaminyl cyclase (QC, EC 2.3.2.5) (human) (UniProt Q16769); assay: competitive inhibition of the human QC catalyzed reaction, 30° C, 0.05 M Tris-HCl pH 8.0, 5 mM EDTA
[2] = test system: T1, H-Gln-Ala-Ala-Ala-Ala-NH2
T1 sequence: QAAAA

H-Gln-Lys-Arg-Leu-NH2 = test system: T2, H-Gln-Lys-Arg-Leu-NH2
T2 sequence: QKRL

H-Gln-Pro-Tyr-Phe-NH2 = test system: T3, H-Gln-Pro-Tyr-Phe-NH2
T3 sequence: QPYF

H-Gln-Gly-Pro-OH = test system: T4, H-Gln-Gly-Pro-OH
T4 sequence: QGP

H-Gln-Phe-Ala-NH2 = test system: T5, H-Gln-Phe-Ala-NH2
T5 sequence: QFA

[Gln^3]-glucagon(3-29) = [Gln^3]-glucagon(3-29) (UniProt P01275)
Chain of [Gln^3]-glucagon(3-29) (P01275 23-49): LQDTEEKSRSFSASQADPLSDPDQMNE

H-Gln-Glu-Asp-Leu-NH2 = test system: T6, H-Gln-Glu-Asp-Leu-NH2
T6 sequence: QEDL

H-Gln-Glu-OH = test system: T7, H-Gln-Glu-OH
T7 sequence: QE

H-Gln-Ala-Ala-NH2 = test system: T8, H-Gln-Ala-Ala-NH2
T8 sequence: QAA

H-Gln-Gln-Tyr-Phe-NH2 = test system: T9, H-Gln-Gln-Tyr-Phe-NH2
T9 sequence: QQYF

[3] = test system: T10, H-Gln(NMe)-Phe-Lys-Ala-Glu-NH2
T10 sequence: QFKAE

H-Gln-Ala-OH = test system: T11, H-Gln-Ala-OH
T11 sequence: QA

H-Gln-His-Tyr-Phe-NH2 = test system: T12, H-Gln-His-Tyr-Phe-NH2
T12 sequence: QHYF

H-Gln-Glu-Tyr-Phe-NH2 = test system: T13, H-Gln-Glu-Tyr-Phe-NH2
T13 sequence: QEYF

H-Gln-Glu-Tyr-Ala-NH2 = test system: T14, H-Gln-Glu-Tyr-Ala-NH2
T14 sequence: QEYA

[4] = test system: T15, H-βhomoGln-Phe-Lys-Arg-Leu-Ala-NH2
T15 sequence: QFKRLA

H-Gln-Glu-Ala-Phe-NH2 = test system: T16, H-Gln-Glu-Ala-Phe-NH2
T16 sequence: QEAF

H-Gln-Ala-NH2 = test system: T17, H-Gln-Ala-NH2
T17 sequence: QA

[5] = test system: T18, [Gln^5]-substance P(5-11)
T18 sequence: QQFFGLM

H-Gln-Asn-Gly-Ile-NH2 = test system: T19, H-Gln-Asn-Gly-Ile-NH2
T19 sequence: QNGI

[6] = test system: T20, H-Gln-Ala-Ala-Ser-Ala-Ala-NH2
T20 sequence: QAASAA

H-Gln-Tyr-Ala-OH = test system: T21, H-Gln-Tyr-Ala-OH
T21 sequence: QYA

[Gln^1]-GnRH = test system: T22, [Gln^1]-GnRH
T22 sequence: QHWSYGLRPG

H-Gln-Trp-Ala-NH2 = test system: T23, H-Gln-Trp-Ala-NH2
T23 sequence: QWA

H-Gln-Gln-OH = test system: T24, H-Gln-Gln-OH
T24 sequence: QQ

H-Gln-Glu-Ala-Ala-NH2 = test system: T25, H-Gln-Glu-Ala-Ala-NH2
T25 sequence: QEAA

[7] = test system: T26, H-Gln-cyclo(Nε-Lys-Arg-Pro-Ala-Gly-Phe)
T26 sequence: QKRPAGF

H-Gln-Glu-Tyr-NH2 = test system: T27, H-Gln-Glu-Tyr-NH2
T27 sequence: QEY

H-Gln-Arg-Gly-Ile-NH2 = test system: T28, H-Gln-Arg-Gly-Ile-NH2
T28 sequence: QRGI

[Gln^1]-Gastrin = test system: T29, [Gln^1]-Gastrin
T29 sequence: QGPWLEEEEEAYGWMDF

[Gln^1]-FPP = test system: T30, [Gln^1]-FPP
T30 sequence: QEP

H-Gln-Arg-Tyr-Phe-NH2 = test system: T31, H-Gln-Arg-Tyr-Phe-NH2
T31 sequence: QRYF

H-Gln-Ser-Tyr-Phe-NH2 = test system: T32, H-Gln-Ser-Tyr-Phe-NH2
T32 sequence: QSYF

H-Gln-Gly-OH = test system: T33, H-Gln-Gly-OH
T33 sequence: QG

Chain of recombinant human glutaminyl cyclase (QC, EC 2.3.2.5) (human) (Q16769 29-361 limits assumed): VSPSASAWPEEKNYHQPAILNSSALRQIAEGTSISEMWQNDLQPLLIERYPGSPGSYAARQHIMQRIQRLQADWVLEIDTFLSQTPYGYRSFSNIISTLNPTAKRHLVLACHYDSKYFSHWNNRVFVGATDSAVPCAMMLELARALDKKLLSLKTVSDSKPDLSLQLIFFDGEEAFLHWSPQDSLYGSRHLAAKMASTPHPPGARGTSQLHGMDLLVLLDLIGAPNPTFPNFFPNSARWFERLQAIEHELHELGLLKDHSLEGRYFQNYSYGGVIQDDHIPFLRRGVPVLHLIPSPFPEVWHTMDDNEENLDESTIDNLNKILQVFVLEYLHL

With H-His-Trp-OH (peptide) the Ki [1] was 600 µM.
Work on “glutaminyl cyclase from Carica papaya latex” yielded a KM (substrate conversion by QC) [2] of 197 µM, a KM (0.05 M Tricine-NaOH, pH 8.0) (H-Gln-Lys-Arg-Leu-NH2) of 0.102 mM and a KM (0.05 M Tricine-NaOH, pH 8.0, 0.5 M KCl) (H-Gln-Lys-Arg-Leu-NH2) of 0.053 mM. The KM (substrate conversion by QC) (H-Gln-Lys-Arg-Leu-NH2) was 118 µM, the KM (substrate conversion by QC) (H-Gln-Pro-Tyr-Phe-NH2) was 149 µM and the KM (substrate conversion by QC) (H-Gln-Gly-Pro-OH) was 333 µM. The KM (substrate conversion by QC) (H-Gln-Phe-Ala-NH2) was 111 µM, the “substrate conversion, determined qualitatively by MALDI-TOF” value ([Gln^3]-glucagon(3-29)) was “*” and the KM (0.05 M Tricine-NaOH, pH 8.0) (H-Gln-Glu-Asp-Leu-NH2) was 0.109 mM. It also gave a KM (0.05 M Tricine-NaOH, pH 8.0, 0.5 M KCl) (H-Gln-Glu-Asp-Leu-NH2) of 0.094 mM, a KM (substrate conversion by QC) (H-Gln-Glu-Asp-Leu-NH2) of 107 µM and a KM (0.05 M Tricine-NaOH, pH 8.0) (H-Gln-Glu-OH) of 0.098 mM. For the same substance, the KM (0.05 M Tricine-NaOH, pH 8.0, 0.5 M KCl) (H-Gln-Glu-OH) was 0.094 mM, the KM (substrate conversion by QC) (H-Gln-Glu-OH) was 106 µM and the KM (substrate conversion by QC) (H-Gln-Ala-Ala-NH2) was 164 µM. For the same substance, the KM (substrate conversion by QC) (H-Gln-Gln-Tyr-Phe-NH2) was 45 µM, the “conversion to the pyroglutamyl peptide (MALDI-TOF)” value [3] was “The methylated glutaminyl residue was only converted into a pyroglutamyl residue by papaya QC” and the KM (0.05 M Tricine-NaOH, pH 8.0) (H-Gln-Ala-OH) was 0.137 mM. The KM (0.05 M Tricine-NaOH, pH 8.0, 0.5 M KCl) (H-Gln-Ala-OH) was 0.143 mM, the KM (substrate conversion by QC) (H-Gln-Ala-OH) was 158 µM and the KM (substrate conversion by QC) (H-Gln-His-Tyr-Phe-NH2) was 92 µM. The KM (substrate conversion by QC) (H-Gln-Glu-Tyr-Phe-NH2) was 100 µM, the KM (substrate conversion by QC) (H-Gln-Glu-Tyr-Ala-NH2) was 113 µM and the “KM (substrate conversion by QC)” value [4] was “KM=3.1±0.3 mM”. For the same substance, the KM (substrate conversion by QC) (H-Gln-Glu-Ala-Phe-NH2) was 81 µM, the KM (substrate conversion by QC) (H-Gln-Ala-NH2) was 212 µM and the “substrate conversion, determined qualitatively by MALDI-TOF” value [5] was “*”. For the same substance, the KM (substrate conversion by QC) (H-Gln-Asn-Gly-Ile-NH2) was 153 µM, the KM (substrate conversion by QC) [6] was 216 µM and the KM (substrate conversion by QC) (H-Gln-Tyr-Ala-OH) was 63 µM. For the same substance, the KM (substrate conversion by QC) ([Gln^1]-GnRH) was 169 µM, the KM (0.05 M Tricine-NaOH, pH 8.0) (H-Gln-Trp-Ala-NH2) was 0.079 mM and the KM (0.05 M Tricine-NaOH, pH 8.0, 0.5 M KCl) (H-Gln-Trp-Ala-NH2) was 0.072 mM. The KM (substrate conversion by QC) (H-Gln-Trp-Ala-NH2) was 78 µM, the KM (substrate conversion by QC) ([Gln^1]-Neurotensin) was 40 µM and the KM (substrate conversion by QC) (H-Gln-Gln-OH) was 44 µM. The KM (substrate conversion by QC) (H-Gln-Glu-Ala-Ala-NH2) was 102 µM, the “KM (substrate conversion by QC)” value [7] was “KM-values of 240±14 µM and 133±5 µM for human and papaya QC, respectively” and the KM (substrate conversion by QC) (H-Gln-Glu-Tyr-NH2) was 103 µM. It also gave a KM (0.05 M Tricine-NaOH, pH 8.0) (H-Gln-Arg-Gly-Ile-NH2) of 0.106 mM, a KM (0.05 M Tricine-NaOH, pH 8.0, 0.5 M KCl) (H-Gln-Arg-Gly-Ile-NH2) of 0.065 mM and a KM (substrate conversion by QC) (H-Gln-Arg-Gly-Ile-NH2) of 123 µM. For the same substance, the KM (substrate conversion by QC) ([Gln^1]-Gastrin) was 34 µM, the KM (substrate conversion by QC) ([Gln^1]-FPP) was 232 µM and the KM (substrate conversion by QC) (H-Gln-Arg-Tyr-Phe-NH2) was 124 µM. It also gave a KM (substrate conversion by QC) (H-Gln-Ser-Tyr-Phe-NH2) of 135 µM and a KM (substrate conversion by QC) (H-Gln-Gly-OH) of 641 µM.
